The test system of assay [1] is mouse peritoneal mast cells. The assay can be described thus: immunofluorescence chemerin binding to peritoneal mast cells (WT or CCRL2 KO).
The target in assay [2] is T1, mCCRL2 (Mus musculus, UniProt O35457).
T1 construct: The coding regions of mCCRL2, huCCRL2, mCRTH2, and huCCR10 were amplified from genomic DNA; expressed in transfected cells
T1 sequence (O35457 1-360): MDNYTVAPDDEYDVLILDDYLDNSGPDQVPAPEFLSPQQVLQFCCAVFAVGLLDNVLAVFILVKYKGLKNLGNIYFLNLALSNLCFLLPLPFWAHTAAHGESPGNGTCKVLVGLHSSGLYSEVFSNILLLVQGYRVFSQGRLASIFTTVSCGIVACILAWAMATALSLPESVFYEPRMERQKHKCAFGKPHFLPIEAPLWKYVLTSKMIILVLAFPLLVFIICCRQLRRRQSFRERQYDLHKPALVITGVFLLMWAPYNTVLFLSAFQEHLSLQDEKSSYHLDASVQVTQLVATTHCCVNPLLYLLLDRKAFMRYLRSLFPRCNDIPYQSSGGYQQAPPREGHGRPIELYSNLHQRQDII
The assay can be described thus: intracellular calcium mobilization, mCCRL2/L1.2 transfectants. The class given is cell-based. The settings on record: Fluo-4; CXCL12 acts via endogenous CXCR4. On the procedure: (§1) Chemoattractant-stimulated Ca^2+-mobilization was performed following Alliance for Cell Signaling protocol ID PP00000210. Cells (3×10^6/mL) were loaded with 4 μM Fluo4-AM and 0.16% Pluronic acid F-127 (Molecular Probes) in modified Iscove's medium (Iscove's medium with 1% heat inactivated bovine calf serum and 2 mM L-glutamine, Invitrogen) for 30 minutes at 37° C. The samples were mixed every 10 minutes during loading, washed once, resuspended at up to 2×10^6/mL in the same buffer, and allowed to rest in the dark for 30 minutes at room temperature. Chemoattractant-stimulated change in Ca^2+-sensitive fluorescence of Fluo-4 was measured over real-time with a FACsScan flow cytometer and CellQuest software (BD Biosciences) at room temperature under constant stirring (500 rpm). Fluorescent data were acquired continuously up to 1024 seconds at 1-second intervals. The samples were analyzed for 45 seconds to establish basal state, removed from the nozzle to add the stimuli, and then returned to the nozzle. Mean channel fluorescence over time was analyzed with FlowJo (TreeStar, Ashland, Oreg., USA) software. […] 500 μl of these chemerin-loaded cells were added to mCMKLR1/L1.2 cells loaded with Fluo4-AM, and calcium mobilization was evaluated.
(Calcium flux is commonly read through the fluorescence of an indicator in the cells.)

In assay [3] the target is T2, mCMKLR1 (Mus musculus, UniProt P97468).
T2 construct: expressed in transfected cells; host or cells: L1.2 mouse pre-B lymphoma cells
T2 sequence (P97468 1-371): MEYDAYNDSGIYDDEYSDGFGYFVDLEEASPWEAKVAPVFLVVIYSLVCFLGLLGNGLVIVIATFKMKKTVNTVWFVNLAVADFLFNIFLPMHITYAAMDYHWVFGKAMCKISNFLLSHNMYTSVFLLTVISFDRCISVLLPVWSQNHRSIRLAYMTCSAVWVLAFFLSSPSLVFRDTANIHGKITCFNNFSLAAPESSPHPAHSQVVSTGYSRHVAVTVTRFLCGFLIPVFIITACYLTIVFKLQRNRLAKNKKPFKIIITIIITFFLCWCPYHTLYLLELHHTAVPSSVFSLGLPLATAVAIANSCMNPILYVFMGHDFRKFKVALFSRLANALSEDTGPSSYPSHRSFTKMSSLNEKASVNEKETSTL
The assay can be described thus: intracellular calcium mobilization, mCMKLR1 L1.2 transfectants. It counts as cell-based. As to conditions: Fluo-4. As to the method:
as §1

In assay [4] the target is T1, mCCRL2. The assay can be described thus: intracellular calcium mobilization, CCRL2/HEK293 transfectants. The class given is cell-based. As to conditions: HEK293 background, alone or in combination. On the procedure: as §1
For another assay, the target named is T3, huCCRL2 (Homo sapiens, UniProt O00421).
T3 construct: The coding regions of mCCRL2, huCCRL2, mCRTH2, and huCCR10 were amplified from genomic DNA; expressed in transfected cells
T3 sequence (O00421 1-344): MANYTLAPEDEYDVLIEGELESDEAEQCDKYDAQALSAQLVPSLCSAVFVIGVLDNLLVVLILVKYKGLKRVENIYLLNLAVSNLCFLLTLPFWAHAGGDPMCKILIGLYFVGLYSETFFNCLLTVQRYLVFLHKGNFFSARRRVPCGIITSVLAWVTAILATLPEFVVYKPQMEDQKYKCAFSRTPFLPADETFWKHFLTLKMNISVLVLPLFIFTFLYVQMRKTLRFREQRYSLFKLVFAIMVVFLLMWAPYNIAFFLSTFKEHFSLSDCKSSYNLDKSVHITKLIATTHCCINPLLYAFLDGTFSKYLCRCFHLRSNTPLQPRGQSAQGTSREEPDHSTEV
Nature of the assay: in vitro transwell chemotaxis, huCCRL2-HA/L1.2 transfectants. The class given is cell-based. The settings on record: range of doses; CXCL12 and CCL19 act via endogenous CXCR4 and CCR7. As to the method: (§2) For migration experiments using cell lines, 2.5×10^5 cells/100 μl chemotaxis media (RPMI+10% fetal calf serum) were added to the top wells of 5-um pore transwell inserts (Costar, Corning, N.Y., USA), and test samples in 600 μl media were added to the bottom wells. After incubating the transwell plates for 1.5 hours at 37° C., the bottom wells were harvested and flow cytometry was used to assess migration. For primary cell chemotaxis, 1×10^6 cells/100 μl were added to the top well, and, following a 2 hour incubation at 37° C., polystyrene beads (15.0 μm diameter, Polysciences, Warrington, Pa., USA) were added to each well to facilitate normalization of the cell count. The cells were then stained for c-kit, F4/80, and/or CD11b expression and analyzed by flow cytometry. A ratio was generated and percent input migration was calculated.

The target in assay [5] is T2, mCMKLR1. Nature of the assay: in vitro transwell chemotaxis, mCMKLR1-HA/L1.2 cells. As to conditions: range of doses. It counts as cell-based. On the procedure: as §2
Assay [6] deals with T2, mCMKLR1. Nature of the assay: receptor internalization assay, mCMKLR1-HA L1.2. It counts as cell-based. As to conditions: 100 nM chemerin. On the procedure: The cells were then washed with 200 μl PBS and stained with mouse anti-HA (Covance, Inc) or mIgG1 isotype control, followed by staining with secondary anti-mouse IgG1 PE, fixed, and analyzed by flow cytometry.
Assay [7] has as its target T1, mCCRL2. Nature of the assay: chemerin internalization assay, mCCRL2-HA/L1.2 cells. It counts as cell-based. The settings on record: 10 nM His8-tagged serum form chemerin. On the procedure: (§3) The primary cells were also stained with F4/80 and c-kit mAbs. Secondary anti-His6 PE was added to the cells and incubated for 30 minutes on ice. […] The cells were incubated for 5 minutes on ice with either PBS or acid wash buffer (0.2 M acetic acid, 0.5 M NaCl), and then analyzed by flow cytometry. Mast cells were identified by gating on SSC^high F4/80^− c-kit^+ cells.

For assay [8], the system named is mouse peritoneal mast cells. Nature of the assay: chemerin internalization assay, peritoneal mast cells. The class given is cell-based. As to conditions: 10 nM His8-tagged serum form chemerin. On the procedure:
as §3

Take “chemerin: protein ligand for signaling receptor CMKLR1; serum form human chemerin expressed in baculovirus-infected insect cells, His8-tag removed”: the “binding to freshly isolated peritoneal mast cells” value in [1] (WT mice) was “bound”. Also, the “preference for binding of the pro-form vs. the active serum form” value in assay [1] (WT peritoneal mast cells) is “no obvious preference”. Further, the “binding to peritoneal mast cells” value in assay [1] (mCCRL2 KO mice) is on record as “did not bind”. The intracellular calcium mobilization entry in the assay with mCCRL2 [2] is on record as “failed to trigger”; in the assay with mCMKLR1 [3], “robust calcium flux”. In the assay with mCCRL2 [4], the “agonism, intracellular calcium mobilization” value was “neither CCL2 nor chemerin functioned as agonists”. Besides, the transwell migration result with huCCRL2 is recorded as “neither human nor mouse CCRL2-HA/L1.2 transfectants migrated”; with mCMKLR1 [5] it was “robust, dose dependent migratory response”. The “time to ligand-induced receptor internalization” value with mCMKLR1 [6] was ≤ 15 min. For the same substance, the “acid resistant cell-associated chemerin” value is on record as “essentially no” with mCCRL2 [7] (5 min at 37° C.) and “very little” in the assay with mCCRL2 [7] (60 min at 37° C.). For the same substance, in [8], the “chemerin internalization (acid wash)” value is reported as “did not internalize”.

Source of the values: patent US20100092974A1, “METHODS FOR SCREENING FOR MODULATORS OF CCRL2” (The Board of Trustees of the Leland Stanford Junior …, priority 2008, published 2010).
